Measurements from PMC3930741.

Target: recombinant Tg-p43 (E. coli-derived) (Toxoplasma gondii)
Test: cross-linking; purified E. coli-derived Tg-p43 at 1 mg/ml in PBS with 10% glycerol, 0.25% glutaraldehyde on ice, stopped with Tris-HCl pH 8; Coomassie-stained SDS-PAGE; beta-amylase and carbonic anhydrase for comparison

## recombinant Tg-p43 (E. coli-derived) (natural protein)
  stoichiometry N: 2
